Measurements from the DeepSol protein solubility set.

Experiment: soluble on expression in E. coli; label from the status in PepcDB or PDB records

| Sequence | soluble on expression in E. coli |
| --- | --- |
| MSLKQIVGHKLLNDVIRPLKKGDGRSAWNVLIVDTLAMRMLSSCCKMHNIMEEGITIVEDLNKRREPLPTLEAIYLIAPTAESIDKLIQDYCARNLYKCAHVFFTEACSDQLFSTLSKSAAARFIKTLKEINIAFTPYESQVFNLDSPDTFFLYYNAQKQGGLTSNLERIAEQIATVCATLGEYPSLRYRADFERNVELGHLVEQKLDAYKADDPSMGEGADKARSQLIIIDRGYDAITPLLHELTLQAMCYDLLGIENDVYKYETGGSDENLEKEVLLDENDDLWVEMRHKHIAVVSQEVTKNLKKFSESKGNKGTMDSKSIKDLSMLIKRMPQHKKELNKFSTHISLAEECMKQYQQGVDKLCKVEQDLSTGIDAEGERVRDAMKLMVPLLIDPAVRCEDRLRLILLYILSKNGITDENLNKLLQHANISMADKETITNAAYLGLNIVTDTGRKKTWTPTKKERPHEQVYQSSRWVPVIKDIIEDAIDERLDTKHFPFLAGRQVNQGYRAPASARYGQWHKERGQQSNYRSGPRLIIYIIGGVTFSEMRACYEVTAARKPWEVVIGSDRIITPDKFLTNLRDLNKPRDI | not soluble |
| MSLKQVPDVNKIKFDPETKRIVRKDVPLMMNSFDKKAVEEAIRISERHGWETCVATMGPPQAVEVINEALRMGIERGYLITDPSLANSDTLITSRVLAAFALRYGPDLVLMGKYSLDGETSQVPAEVSALMGWPYVPSVSKIMISDHLELEQELENGIYTCSAPLPCVLSLSEKINRARAIKPDTPQMYDRIVQIDTKWLGLDLDGGRDSPTAVIGTEQVNSNRSPVFIDPGADMYRQIMEIIRVSRKNDRMKTIDLNYAEFRGEAWAIAIDSENASLEIASKVADIASENSFYVRVIGNVEFSDPRSVPAHHVDIISGTDAVGLSYYIVDEIKKHSPEFLIFPSTVTGRQISSLVAARFGLGLTADCVDLSYGDRGLLQYKPAFGGGVIAEIISRKKPAMATARPGMFRKVKVNIEPSISHMSLDPAGRIRYGQFIPVPQEFKPLEGSRLILGIGRGLKRKEDLPKIMELASMLGASVGGSRPIVDMNYIPRQQQIGLTGSAVSPDVYIALGISGQDNHIVGLRYARKIIAVNTDRNAPIFRYSDYGIIMDLMQFVEGFLHFLNAEGHHHHHH | not soluble |
| MSLKQYLITGGTGMVGSQLVNEIKKSDSHITILTRHDQISNDKKISYVNWAKSGWEHKVPQNIDVVINLAGATLNKRWTPEYKQTLMLSRIQSTQALYELFKSRNKAPKVLFNASATGYYPPDLFMSYTEVYKTLPFDFLSDIVYQWERFAQQFEQLGTRVVIGRFGMILSNEGGALQTMKLPYKYYIGGKLGSGQQWYSWIHINDLIQAILFLINNESASGPFNLTAPIPERQNLFGYTLARAMHKPHETWAPSLAMRLILGQMSTVVLDTQKVLPNKIQALGFQFKYSNLKMALEDLIKEGHHHHHH | soluble |
| MSLKRFIDDHRDVHGVEPICKVLPIAPSTYYAHAARRSDPELRSARAKTDEALMPEIRRVWDENFQVYGVRQLWRQMRREQFAVARCTVQRLMKRQGLRGVIRGKAVRTTVSDAKAPCPLDHVNRQFTSDRPNALWVSDFTDVSTWQGWICVAFVIDVFARRIVGWKASPSMRTELVLDALEQALHARKPVGSERMIHHSDRGVQYVSIRYTERLAEAGLEPSVGSVSDSYDNALAETINGLCKAEVIHRKSSWRTREEVEWATLTWVDWFNNRRVLEPIGNIPPAEAEANYYLISPDLQLQHLRAYREGHHHHHH | soluble |
| MSLKRIKTVLAATDLSAPARHAAMRAALLAGQTDAKLGLLHVVDLQLMEHLRSFAGRSGEAAERRLIGEAMKELERLATDMTHRWGSAVEVRLVVGAVLKEIVAHADTLDADLLVMGARGAGFVRELLLGSTTERVLRLITRPVLMVKQIPHGPYQRVLVAVDFSERSVAALRLARWVAPEAHFVVLNAFQPPLENKLRQGGADEFEIMELRDAARRDADARMDEVMAHAGFPAERLTRLVLPGPALDCVLEQEQEQDCDLIVVGKHGYGWIEEMLLGSLTKHLLALSSCDVLVASQSREGHHHHHH | soluble |
| MSLKRLTSRRQKGGGCPDLTIRAHHLLCMRGFQGYGYSEEFTENLARIIHEIKGNPSAFLMIVDFPDDICRACPFMDGLRCLRDEERIRSMDRRVLELLKLESGCMVTFHDIEDALLALITSGKIMEICGECSWMDLCLIHREGHHHHHH | not soluble |
| MSLKRTITPVHEVQTEWVHLHYAESSIFKEVYGFVGTQGTVNLEGVRYTPVGRPSKTLLVFMHPASTLQLLPMPRELARHGAHVLCAGSRYQRNDSALIMENVVVDLGAYIRHAKEVWKYEKVVLVGWSGGGSLSLLYQSQAENPTISTTPAGDPCSIKQAGLMPADAFIFQAAHTGRARMLSEWIDPSVLDENDPDRIDPGLNLYATTCRPPYSADFLAAFRAGQRARLRRRTAWVKETLETLRRKGGQEVERGFVTHRTMADPRFLDPTIEPNDRPIGRCFMGIPETVNNGPVGIARFSTLRAWLSQWSPDDSNADGVTCAKSLTVPFLAIEHSADDAVPQSHVRQVFEAASATDKSMTVLQGATHYFLGQPEMLQQAATICLDWLAERGLHDEGHHHHHH | soluble |
| MSLKSIFISGAANGIGKAVALKFLHEGWLVGAYDLAEITYSHPNLRWGYLNVRQSESWDKALEDFATHTGGTIDVVDNNAGVIIEGPLQDAEEGSVDKLLAINVNGVTLGARAAHPYLARTPGAQLLNMSSASAVYGQPQIAVYSASKFYVAGLTEALNLEWRKDDIRVVDVWPLWAKTDLVNGVKAKSLKRLGVRITPEQVAQAVWDAVHPKSRWAKGKVHHGVSKLDKALYLMKSLSPDRVAMCFARLIAGEGHHHHHH | soluble |
| MSLKTELTLLEQTLTLHRFPKRNNETLQAWDAGDEYLIQHVEQLALPESSHIVIINDHFGTLSCWFSQKHKVSMMSDSYIAHQATQANLQQNQRPPVQLLTTLDPVPNDASVVLLQLPKSNRHLVWILSQLRKALSPNIPIIAVNKAKEIHTSTLNLFEKHLGPTTTSLAWKKHRLVFSSATVNPANEVNPECGWSIEPYAITLTNLPNVYSGESLDLGSRFILEHLPADPTLEDFIDLGCGNGVLSVRLGQLNPQAKITCVDESFMAIASAQKNLHDNLGKRDIHCIANNCLDGFPAHSSSMIVCNPPFHQQQTITDHIAWQMFCDSKHVLKKGGKLWVIGNRHLGYDVKLARLFGKSHVRVIANNSKFVILQAIKSEGHHHHHH | soluble |
| MSLKVAVIGAGAMGGLYGAYLSRKNDVYMIDINEKVVKSINENGLIIYERENNKKEKFLVSAFTDSSNLGPMDLVIIFVKNLYTTSALKNNLNLFSDSTLVITLQNGAGNDRDLEKFIKKENILIGTTEHSCSILETGEVSHNQEGITNIGMLVYNDNIIKRISDEFKACSLKTEVYQNIQEIIWSKLFINMALNSTTAILNCKVGYLEKSKDASEIVQSILSEAVDVAIADGTFFNKKEVIDKVQKCIREDLPNAITSMNQDVSNKRLTEIDHINGAVANLAKLYKIPTPYNDCIIHIIHALEGLYNEGHHHHHH | soluble |
| MSLKVKRPFDAYLDEMNKITILLPHAYGTSRTFRLQEGSNVKDLPIAHTIALPDATKYECFIEEPLDVGKYYTVRDERNEETDLQIGAVIRTAIFDEKYYYEGTDLGAVHQKEATTFKVWAPTARLAKVRIYKSDKEYTDYEMYREENGVWAHTLHGDLAGEKYTFLVCINLIWNEAVDPYAKSVTVNGKYGVVIDLEKTNVTKRGQLPPLQAMTDAILYELHIRDATIHPGSGVSKKGTYKGLMEEGTTGRNGTLTGLSHIKDLGVTHVELLPLYCFGGVDEANPSSAYNWGYNPLYYNAPTGYYATNPSDPYNRIVECKQLIETFHEHGIRVIIDVVYNHVYERELSSFEKLVPGYYFRHGENGMPSNGTGVGNDIASERKMMRKFIVESILYWLTEYNVDGFRFDLMGILDVDTINIIEKEVRNIKRDALLLGEGWDLQTPLPLEEKATLNNAKKMPHIAQFNDQFRDGIKGSTFHINKRGFAFGGYVDCNHLQYIASGSLLSMKETGLFLEPVQSINYVECHDNMTMWDKLMRSNEESEEILKKRHLLATAMVILSQGIPFLHAGQEFYRTKQGNENSYNANDEINQLDWDRKEKEIETVNYIKGLIAIRKEHGAFRLQNADLIKKHMTFLQTSPEVLAYHLEHVESFGPWKEIVVLFNSSLEAKTVQLPKEETWHVLVNEKQAKIEPISSFRGKELRLAPISTYILTIMEGHHHHHH | soluble |
| MSLKVVIGYLALDDWEFESLFPTIEWKYLTHINASFARVKADGTLNINPVRKRIESVRETAHKHNVKILISLAKNSPGEFTTAINDPKARKELIQQIIAFTKEYKLDGFDIDYEEYDNWDKNFPSLLVFARGLYLAKEKNMLMTCAVNSRWLNYGTEWEQYFDYINLMSYDRGAFTDKPVQHASYDDFVKDLKYWNEQCRASKSKIVGGLPFYGYSWEESLQGAVDDVRGIRYSGILKHLGNEAADKDNIGKTYYNGRPTIANKCKFIKENDYAGVMIWQLFQDAHNDNYDLKLINVVGREMMEEGHHHHHH | soluble |
| MSLKWLKKQAELYPQKQFLNDSTFAQINQEVNKMAEHLAPLIDNQSRVALLSENSVEMAVVLFALLGLSKEVLLLNRHLTEYELADQIKELKIDKVFTSDLLTEKVTDSISFSEIWTSNPCPVSLSADFPDEKIAVIMNTSATTGKFKSVPITWGMISNHVKASKETLGAYDNDNWLVILPMFHVSGLSIIMRTLYNATSATVVDKFDENQLLEMINSGKINMVSLVPTLLTRIADKLHSNNLRLILLGGEFIPQPLIKKCQELGLPIYKTYGMTESFSQSVTFNILDFPDKTSSVGRPLPGVEIEIRQADLAGVGEIWLKSPMLMKAYLGQKPYGTAFETGDIGYLDTDGFLYLLNRRKDIIISGGENIYPKEIEDLVYSLPEIKECALVAKPDAKWGQVPILFVSGNISQEKLENFLTEKLAKYKRPQSITFMDELPKNASGKILRKELKEGHHHHHH | soluble |
| MSLLALGIEGTAHTLGIGIVSEKKVLANVFDTLTTEKGGIHPKEAAEHHARLMKPLLKKALEKAGISMDDIDVIAFSQGPGLGPALRVVATAARALAIRYNKPIVGVNHCIAHVEITKMFGIKDPVGLYVSGGNTQVLALEGGRYRVFGETLDIGIGNAIDVFARELGLGFPGGPKLEKLAEKGKNYIDLPYAVKGMDLSFSGLLTEAIRKYRSGKFRVEDLAYSFQETAFAALVEVTERALAHTEKKEVVLVGGVAANNRLREMLKIMAEDRGVKFFVPPYDLCRDNGAMIAYTGLRMYKAGISFPLEKTIVKQKFRTDEVEITWEGHHHHHH | not soluble |
| MSLLLSATTSIHDLVTSHPYLIEVLADYAPAFAKLRNPLLRNTLGRVATLQQAADLAGLELTGLMAHLARAIMEHTKEAVTLVPRGAETPAHAVADGDSGCGGCTPRPAEGNTADRATRLATLRALLERLHQGTPLADLKEAFASAVGGISAAEVASLEKELVAGGVAETEIKRLCSLHVDIFREALAPQHVPDMPPGHPVHTYRAENAEATRIADEIISQIDRMRSVPGDTESPLDELAWSFSRRHVADLLADLAHVERHYTRKEMQLFPMLEENGIEAPPKVMWEVHDDIRSLLRKARETVEGPSPVAAATVARDAALAVKDMVDKEETVLFPMALESLTEAQWGRVRHGEDEIGYAWVTPEGEWTPQAADTPESLTMEGAATGTPDRVTLGTGTLTVETLDRMLRTLPLDLSLVDAEDRVAYYTDSTHRIFPRSAGVIGRNVRNCHPPKSVHMVEEILARFKTGERDEAAFWIELGGRFLHIRYFAVRSDEGRYLGCLEVAQDVTDIRALSGQRRLLDWNEGHHHHHH | not soluble |
| MSLLRPLSKTDCPMLQEINAKALGYLVSLDLLERQYERLIEDCHHYFLAYADKDTNQLLGYVHAERYETLYASDGLNLLGLAVLPAYQRRGIGSALLRALESQARQEGIAFIRLNSASHRKEAHAFYRNLDYADDKTQLRFIKNLQGDDNDFEGHHHHHH | soluble |
